Targets include HTRA1, Q92743; MAGI2_3, Q86UL8; DLG1_2, Q12959; LIMK2, P53671; NHERF4_4, Q86UT5; MAGI2_2, Q86UL8; PDZRN4_1, Q6ZMN7.
Holding throughout (test): holdup assay
What all share (set-up): key: below the threshold = too weak to quantify, mostly under pKd 3.1 to 4

The target in a further assay is T1, SHANK1, Q9Y566.
T1 sequence (Q9Y566 658-767, limits assumed, looked up): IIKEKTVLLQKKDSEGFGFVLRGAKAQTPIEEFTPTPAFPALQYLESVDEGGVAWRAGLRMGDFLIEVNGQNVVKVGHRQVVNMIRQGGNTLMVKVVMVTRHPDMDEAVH

For the next assay, the target named is T2, DFNB31_3, Q9P202.
T2 sequence (Q9P202 811-907, limits assumed, looked up): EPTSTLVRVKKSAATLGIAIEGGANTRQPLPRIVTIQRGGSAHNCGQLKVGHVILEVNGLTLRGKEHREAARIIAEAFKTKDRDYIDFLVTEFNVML

The target of the next assay is T3, DFNB31_1, Q9P202.
T3 sequence (Q9P202 135-233, limits assumed, looked up): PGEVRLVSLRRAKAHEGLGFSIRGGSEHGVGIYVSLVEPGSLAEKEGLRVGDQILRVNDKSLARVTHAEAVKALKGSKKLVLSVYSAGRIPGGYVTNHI

The target in another assay is T4, TIAM2, Q8IVF5.
T4 sequence (Q8IVF5 885-986, limits assumed, looked up): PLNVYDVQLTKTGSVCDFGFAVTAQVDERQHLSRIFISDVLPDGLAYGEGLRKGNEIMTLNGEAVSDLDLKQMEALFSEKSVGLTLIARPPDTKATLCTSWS

Another assay concerns the target T5, CARD11, Q9BXL7.
T5 sequence (Q9BXL7 662-765, limits assumed, looked up): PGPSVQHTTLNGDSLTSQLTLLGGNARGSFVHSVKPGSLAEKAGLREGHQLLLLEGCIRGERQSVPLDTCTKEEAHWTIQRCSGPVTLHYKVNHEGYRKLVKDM

In a further assay the target is T6, FRMPD1, Q5SYB0.
T6 sequence (Q5SYB0 52-145, limits assumed, looked up): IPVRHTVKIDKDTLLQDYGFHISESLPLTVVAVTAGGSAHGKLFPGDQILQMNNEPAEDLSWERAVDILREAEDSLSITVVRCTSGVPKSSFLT

The target in a further assay is T7, DVL3, Q92997.
T7 sequence (Q92997 244-331, limits assumed, looked up): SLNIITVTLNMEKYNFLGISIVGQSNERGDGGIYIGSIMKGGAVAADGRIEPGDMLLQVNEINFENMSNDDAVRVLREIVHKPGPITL

The target in the next assay is T8, HTRA4, P83105.
T8 sequence (P83105 378-476, limits assumed, looked up): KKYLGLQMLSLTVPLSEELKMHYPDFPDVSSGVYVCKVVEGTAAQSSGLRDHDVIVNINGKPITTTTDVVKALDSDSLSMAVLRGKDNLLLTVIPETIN

The target of a further assay is T9, TX1BP3, O14907.
T9 sequence (O14907 10-122, limits assumed, looked up): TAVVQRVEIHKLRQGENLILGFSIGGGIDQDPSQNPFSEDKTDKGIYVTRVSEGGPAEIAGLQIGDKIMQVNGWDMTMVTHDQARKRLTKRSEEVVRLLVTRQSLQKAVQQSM

In another assay the target is T10, APBA1_1, Q02410.
T10 sequence (Q02410 651-752, limits assumed, looked up): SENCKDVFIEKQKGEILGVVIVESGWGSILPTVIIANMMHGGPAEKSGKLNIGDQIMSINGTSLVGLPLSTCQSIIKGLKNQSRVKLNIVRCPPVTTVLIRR

The next assay addresses T11, DFNB31_2, Q9P202.
T11 sequence (Q9P202 274-371, limits assumed, looked up): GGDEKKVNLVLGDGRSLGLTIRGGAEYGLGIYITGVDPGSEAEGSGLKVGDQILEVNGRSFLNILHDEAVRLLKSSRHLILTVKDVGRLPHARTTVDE

In a further assay the target is T12, TJP3_3, O95049.
T12 sequence (O95049 375-456, limits assumed, looked up): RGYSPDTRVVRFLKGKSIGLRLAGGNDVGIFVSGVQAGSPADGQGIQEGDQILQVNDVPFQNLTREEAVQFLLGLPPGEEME

The next assay deals with T13, LIN7C, Q9NUP9.
T13 sequence (Q9NUP9 88-185, limits assumed, looked up): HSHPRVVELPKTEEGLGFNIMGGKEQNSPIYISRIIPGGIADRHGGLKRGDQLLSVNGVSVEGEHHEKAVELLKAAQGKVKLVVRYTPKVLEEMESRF

A further assay has as its target T14, RAPGEF6, Q8TEU7.
T14 sequence (Q8TEU7 525-625, limits assumed, looked up): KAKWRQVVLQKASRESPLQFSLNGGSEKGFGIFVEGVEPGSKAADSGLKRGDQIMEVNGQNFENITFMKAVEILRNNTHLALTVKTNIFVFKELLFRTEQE

The next assay addresses T15, GRIP1_5, Q9Y3R0.
T15 sequence (Q9Y3R0 568-668, limits assumed, looked up): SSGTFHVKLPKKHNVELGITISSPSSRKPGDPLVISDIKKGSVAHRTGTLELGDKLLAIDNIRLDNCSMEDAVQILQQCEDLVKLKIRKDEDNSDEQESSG

Where [1] appears, read: plain residues with an end cap or a label only (N-terminal biotin on a linker: (peg)3).
The mark [2] stands for this setting: plain residues with an end cap or a label only (N-terminal biotin on a linker: ado-ado).
Where [3] appears, read: plain residues with an end cap or a label only (N-terminal biotin on a linker: ahx).

Experimental findings from PMC9482650, “Quantitative fragmentomics allow affinity mapping of interactomes” (Nature Communications, 2022) are described below.

LIMK2, P53671, sequence (P53671 143-248): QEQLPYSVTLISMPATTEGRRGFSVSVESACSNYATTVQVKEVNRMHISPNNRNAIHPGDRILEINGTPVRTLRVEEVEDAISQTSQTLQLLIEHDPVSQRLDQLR
MAGI2_2, Q86UL8, sequence (Q86UL8 410-522): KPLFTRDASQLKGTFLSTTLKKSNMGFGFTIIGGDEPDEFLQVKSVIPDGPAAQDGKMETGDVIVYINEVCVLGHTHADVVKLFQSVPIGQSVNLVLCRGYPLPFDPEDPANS
PDZRN4_1, Q6ZMN7, sequence (Q6ZMN7 213-318): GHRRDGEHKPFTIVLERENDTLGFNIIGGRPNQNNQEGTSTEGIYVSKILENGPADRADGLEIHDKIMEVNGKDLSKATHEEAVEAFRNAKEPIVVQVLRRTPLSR
HTRA1, Q92743, sequence (Q92743 360-477): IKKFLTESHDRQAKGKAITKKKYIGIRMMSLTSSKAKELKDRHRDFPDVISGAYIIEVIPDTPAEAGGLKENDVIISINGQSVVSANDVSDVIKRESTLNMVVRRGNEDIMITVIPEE
DLG1_2, Q12959, sequence (Q12959 314-412): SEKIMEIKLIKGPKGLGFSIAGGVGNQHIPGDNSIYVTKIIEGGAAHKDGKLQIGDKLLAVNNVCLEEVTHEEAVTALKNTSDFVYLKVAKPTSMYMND
NHERF4_4, Q86UT5, sequence (Q86UT5 464-550): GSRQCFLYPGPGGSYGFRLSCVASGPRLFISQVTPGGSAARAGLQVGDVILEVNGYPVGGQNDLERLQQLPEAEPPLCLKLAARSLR
MAGI2_3, Q86UL8, sequence (Q86UL8 600-682): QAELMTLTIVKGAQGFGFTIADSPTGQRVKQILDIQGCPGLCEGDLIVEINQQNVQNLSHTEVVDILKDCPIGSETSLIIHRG

As to RYEDTTLVEDTVL [WNV-NS5, Q9Q6P4], the pKd in the assay with SHANK1, Q9Y566 (setting [1]) is 4.77; with DFNB31_3, Q9P202 (setting [1]) it was “below the threshold”; with HTRA1, Q92743 (setting [1]) it was 4.58; with DFNB31_1, Q9P202 (setting [1]), 3.83; in the assay with MAGI2_3, Q86UL8 (setting [1]) it was “below the threshold”; with TIAM2, Q8IVF5 (setting [1]), “below the threshold”. The pKd result was “below the threshold” in the assay with CARD11, Q9BXL7 (setting [1]); 3.77 with DLG1_2, Q12959 (setting [1]); “below the threshold” with LIMK2, P53671 (setting [1]); “below the threshold” in the assay with FRMPD1, Q5SYB0 (setting [1]); “below the threshold” in the assay with DVL3, Q92997 (setting [1]); “below the threshold” with HTRA4, P83105 (setting [1]). Besides, the pKd entry in the assay with TX1BP3, O14907 (setting [1]) is on record as “below the threshold”; with APBA1_1, Q02410 (setting [1]), “below the threshold”; with DFNB31_2, Q9P202 (setting [1]), “below the threshold”; with TJP3_3, O95049 (setting [1]), “below the threshold”; in the assay with NHERF4_4, Q86UT5 (setting [1]), “below the threshold”; in the assay with LIN7C, Q9NUP9 (setting [1]) it was “below the threshold”. The pKd entry was “below the threshold” with RAPGEF6, Q8TEU7 (setting [1]); “below the threshold” in the assay with GRIP1_5, Q9Y3R0 (setting [1]); “below the threshold” with MAGI2_2, Q86UL8 (setting [1]); 3.94 with PDZRN4_1, Q6ZMN7 (setting [1]).

Turning to NISYRRESAI [KCNJ4, P48050], the pKd entry in the assay with SHANK1, Q9Y566 (setting [2]) was “below the threshold”; with DFNB31_3, Q9P202 (setting [2]), “below the threshold”; in the assay with HTRA1, Q92743 (setting [2]), “below the threshold”; in the assay with DFNB31_1, Q9P202 (setting [2]), 4.29; with MAGI2_3, Q86UL8 (setting [2]) it was “below the threshold”; with TIAM2, Q8IVF5 (setting [2]) it was 4.07. Further, the negative-log Kd (pKd) entry was “below the threshold” with CARD11, Q9BXL7 (setting [2]); 4.48 with DLG1_2, Q12959 (setting [2]); “below the threshold” with LIMK2, P53671 (setting [2]); “below the threshold” with FRMPD1, Q5SYB0 (setting [2]); “below the threshold” with DVL3, Q92997 (setting [2]); “below the threshold” with HTRA4, P83105 (setting [2]). Besides, the negative logarithm of the Kd (pKd) was 4.82 with TX1BP3, O14907 (setting [2]); “below the threshold” with APBA1_1, Q02410 (setting [2]); “below the threshold” with DFNB31_2, Q9P202 (setting [2]); “below the threshold” in the assay with TJP3_3, O95049 (setting [2]); “below the threshold” with NHERF4_4, Q86UT5 (setting [2]); “below the threshold” with LIN7C, Q9NUP9 (setting [2]). The negative logarithm of the Kd (pKd) result with RAPGEF6, Q8TEU7 (setting [2]) was “below the threshold”; with GRIP1_5, Q9Y3R0 (setting [2]) it was “below the threshold”; with MAGI2_2, Q86UL8 (setting [2]) it was 4.74; in the assay with PDZRN4_1, Q6ZMN7 (setting [2]), 4.25.

With QDEKVKESYV [ABCA1, O95477], the negative logarithm of the Kd (pKd) result with SHANK1, Q9Y566 (setting [3]) is “below the threshold”; in the assay with DFNB31_3, Q9P202 (setting [3]), “below the threshold”; with HTRA1, Q92743 (setting [3]), 4.28; in the assay with DFNB31_1, Q9P202 (setting [3]), 3.88; with MAGI2_3, Q86UL8 (setting [3]), 4.85; in the assay with TIAM2, Q8IVF5 (setting [3]), “below the threshold”. For the same molecule, the pKd result was “below the threshold” with CARD11, Q9BXL7 (setting [3]); 5.09 in the assay with DLG1_2, Q12959 (setting [3]); “below the threshold” with LIMK2, P53671 (setting [3]); “below the threshold” with FRMPD1, Q5SYB0 (setting [3]); 3.7 with DVL3, Q92997 (setting [3]); “below the threshold” in the assay with HTRA4, P83105 (setting [3]). The pKd is 4.74 with TX1BP3, O14907 (setting [3]); “below the threshold” in the assay with APBA1_1, Q02410 (setting [3]); 4.79 in the assay with DFNB31_2, Q9P202 (setting [3]); “below the threshold” in the assay with TJP3_3, O95049 (setting [3]); “below the threshold” in the assay with NHERF4_4, Q86UT5 (setting [3]); 4.59 with LIN7C, Q9NUP9 (setting [3]). The negative-log Kd (pKd) entry with RAPGEF6, Q8TEU7 (setting [3]) is “below the threshold”; with GRIP1_5, Q9Y3R0 (setting [3]), “below the threshold”; with MAGI2_2, Q86UL8 (setting [3]), 4.52; with PDZRN4_1, Q6ZMN7 (setting [3]), 3.95.

Take DPAESMESLV [PTPRG, P23470]: the pKd result with SHANK1, Q9Y566 (setting [2]) was “below the threshold”; in the assay with DFNB31_3, Q9P202 (setting [2]) it was 3.88; with HTRA1, Q92743 (setting [2]) it was 4.41; in the assay with DFNB31_1, Q9P202 (setting [2]), “below the threshold”; with MAGI2_3, Q86UL8 (setting [2]), 4.54; with TIAM2, Q8IVF5 (setting [2]), “below the threshold”. In addition, the negative-log Kd (pKd) entry with CARD11, Q9BXL7 (setting [2]) is “below the threshold”; with DLG1_2, Q12959 (setting [2]) it was 5.03; with LIMK2, P53671 (setting [2]), “below the threshold”; with FRMPD1, Q5SYB0 (setting [2]) it was “below the threshold”; with DVL3, Q92997 (setting [2]) it was “below the threshold”; with HTRA4, P83105 (setting [2]), 3.83. Further, the pKd was 4.03 with TX1BP3, O14907 (setting [2]); “below the threshold” with APBA1_1, Q02410 (setting [2]); “below the threshold” with DFNB31_2, Q9P202 (setting [2]); “below the threshold” with TJP3_3, O95049 (setting [2]); 3.75 with NHERF4_4, Q86UT5 (setting [2]); 3.94 in the assay with LIN7C, Q9NUP9 (setting [2]). The pKd entry in the assay with RAPGEF6, Q8TEU7 (setting [2]) is “below the threshold”; with GRIP1_5, Q9Y3R0 (setting [2]), “below the threshold”; with MAGI2_2, Q86UL8 (setting [2]), 4.24; with PDZRN4_1, Q6ZMN7 (setting [2]) it was 3.72.

Regarding QPRTWLQSPV [RTKN, Q9BST9], the pKd with SHANK1, Q9Y566 (setting [3]) was 3.74; with DFNB31_3, Q9P202 (setting [3]) it was “below the threshold”; with HTRA1, Q92743 (setting [3]), “below the threshold”; with DFNB31_1, Q9P202 (setting [3]) it was 4.35; with MAGI2_3, Q86UL8 (setting [3]), “below the threshold”; with TIAM2, Q8IVF5 (setting [3]) it was “below the threshold”. For the same molecule, the pKd entry with CARD11, Q9BXL7 (setting [3]) is “below the threshold”; with DLG1_2, Q12959 (setting [3]), 4.3; with LIMK2, P53671 (setting [3]) it was “below the threshold”; with FRMPD1, Q5SYB0 (setting [3]) it was “below the threshold”; with DVL3, Q92997 (setting [3]), “below the threshold”; in the assay with HTRA4, P83105 (setting [3]) it was “below the threshold”. The negative-log Kd (pKd) is 6.05 in the assay with TX1BP3, O14907 (setting [3]); “below the threshold” in the assay with APBA1_1, Q02410 (setting [3]); “below the threshold” in the assay with DFNB31_2, Q9P202 (setting [3]); “below the threshold” with TJP3_3, O95049 (setting [3]); “below the threshold” with NHERF4_4, Q86UT5 (setting [3]); “below the threshold” in the assay with LIN7C, Q9NUP9 (setting [3]). Also, the negative-log Kd (pKd) entry with RAPGEF6, Q8TEU7 (setting [3]) was “below the threshold”; with GRIP1_5, Q9Y3R0 (setting [3]), “below the threshold”; with MAGI2_2, Q86UL8 (setting [3]), 4.39; in the assay with PDZRN4_1, Q6ZMN7 (setting [3]), “below the threshold”.
